# Experimental data published in the DeepSol protein solubility set.
# Test: soluble on expression in E. coli; label from the status in PepcDB or PDB records
row,Sequence,soluble on expression in E. coli
1,MKIKPVKVESIENPKRFLNSRLLTKIEVEEAIEKALKQLYINIDYFGEEYPTPATFNNIYKVMDNTEWTNGFWTGCLWLAYEYNQDKKLKNIAHKNVLSFLNRINNRIALDHHDLGFLYTPSCTAEYRINGDVKALEATIKAADKLMERYQEKGGFIQAWGELGYKEHYRLIIDCLLNIQLLFFAYEQTGDEKYRQVAVNHFYASANNVVRDDSSAFHTFYFDPETGEPLKGVTRQGYSDESSWARGQAWGIYGIPLSYRKMKDYQQIILFKGMTNYFLNRLPEDKVSYWDLIFTDGSGQPRDTSATATAVCGIHEMLKYLPEVDPDKETYKYAMHTMLRSLIEQYSNNELIAGRPLLLHGVYSWHSGKGVDEGNIWGDYYYLEALIRFYKDWELYW,soluble
2,MKILAIINPISGIGSKSNIPSLIADVFAHDPHELFITYSQRAGHARELAAQAVEKHYDCVIAVGGDGTVNEIAQSLRYTDVVLGIVPKGSGNGLARALKLPLTVGKALEVIRAGHVRTIDCCEADSRPFFCTCGLGFDAEVSKKFAQAGSRGPITYARTMIESYLQNEPKEYKLTIDGKSFEEKAFLVTCANAPQYGNNAYIAPLADLEDGKMDVVIIRPFNPLEAPQLALQLFTKRINSNSNLDTYKAENLIIERETEGVMHLDGDPVMFGKRIEIRTYGRSLKVFATETYT,not soluble
3,MKIQDYTKEMVDEKSFIDMAYTLLNDKQTTMNLYDIIDEFKSLGGYEYEDIENRIVQFYTDLNTDGRFLNVGENLWGLRDWYSVDDIEEKIAPTIQKFDILDDEDEEDQNLKLLGDDDADEDDDIPAQTDDQETLDESDNDEDDVEMNEADIVIDEDEDEDIAEGEEEAFEDAEDFND,not soluble
4,MKISIENIGKIKSTSILLDGFTVIAGENDSGKSTVGKIVYSIIQAFSIYPQFRKEKIRRKTSHSLRFFITELRRNFDLTKHDSLRQMMSFSFVNHIMADPDDALYEIRGVLDKLEESYPEKLETLIKLKSRLYGIQREIDSLSESDDIFESITDLMQSEFGGEIDRKQDSRPPSFEINDGETTVISAKFSDGIITDGIYSGGLGLGLGDATYIDGASILQYAHLINLNDSDPRLPFHITDLARKLISPTLVRGGSSNLADIYKGRLVFDETQNSFYFDKGGYRVCLNNIASGIKNIGVLDLLVKKGVICDGSLLVLDEPEINLHPKWQTQLAKIICELHQAGVYILLTTHSPYMIEALHYYANVSGIKSNFYLACKSIANPDDVDFIDLSMNVGAIIEDLAQPLWDIVEDNNEFLEHHHHHH,soluble
5,MKISPSRQVKGEIEIIPVSGFRGIGKFIDVPWRLYADDPLWVPPLRLERRLHLSRFNPYFRHAQWQGWIACRDNQPVGRISAQIDELYQQRYGTDTGHFGMLESIQDEAVFSRLIQVAESWLVERGVRQISGPFNFSINQECGLLVQGFDTPPVFMMPYSPEWYTSLLEQNGYQPCKDLLAYWLVTDFDPPPAMQAIDRKYRHQIRIRPLQRNRFNEEIETMRDIFNDAWSDNWGFVPFTQEEFAELGSSLRWLVPDEFIQIAEIDGRPVAFMAVLPNLNEVLPALNGKLLPLGWLHLINKLKSASITTGRVPLMGVRKQFHHTLVGIALAFKVIDAPRKMVKSRGIGHVELSWILEDNQSMRAILEKIGGREYKRYRIYDKTLA,not soluble
6,MKITVIGAGNVGATTAFRLAEKQLARELVLLDVVEGIPQGKALDMYESGPVGLFDTKVTGSNDYADTANSDIVIITAGLPRKPGMTREDLLMKNAGIVKEVTDNIMKHSKNPIIIVVSNPLDIMTHVAWVRSGLPKERVIGMAGVLDAARFRSFIAMELGVSMQDINACVLGGHGDAMVPVVKYTTVAGIPISDLLPAETIDKLVERTRNGGAEIVEHLKQGSAFYAPASSVVEMVESIVLDRKRVLPCAVGLEGQYGIDKTFVGVPVKLGRNGVEQIYEINLDQADLDLLQKSAKIVDENCKMLESTIG,soluble
7,MKIVAIGAIPFSIPYTKPLRFASGEVHAAEHVLVRVHTDDGIVGVAEAPPRPFTYGETQTGIVAVIEQYFAPALIGLTLTEREVAHTRMARTVGNPTAKAAIDMAMWDALGQSLRLSVSEMLGGYTDRMRVSHMLGFDDPVKMVAEAERIRETYGINTFKVKVGRRPVQLDTAVVRALRERFGDAIELYVDGNRGWSAAESLRAMREMADLDLLFAEELCPADDVLSRRRLVGQLDMPFIADESVPTPADVTREVLGGSATAISIKTARTGFTGSTRVHHLAEGLGLDMVMGNQIDGQIGTACTVSFGTAFERTSRHAGELSNFLDMSDDLLTVPLQISDGQLHRRPGPGLGIEIDPDKLAHYRTDN,soluble
